# Test results reported in patent US20170081400A1 (CEPHALON, published 2017).
# T1: human TL1A extracellular domain with N-terminal HIS and FLAG tag (human, UniProt O95150 72-251)
# T1 construct: whole entry named. ~70 kDa fraction purified by gel filtration
# T1 sequence: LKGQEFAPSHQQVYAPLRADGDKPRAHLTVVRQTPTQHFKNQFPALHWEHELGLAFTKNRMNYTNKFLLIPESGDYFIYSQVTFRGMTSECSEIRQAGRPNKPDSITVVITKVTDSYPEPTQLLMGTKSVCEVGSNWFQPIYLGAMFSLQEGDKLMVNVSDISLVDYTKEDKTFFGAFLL
# T2: human TL1A extracellular domain with N-terminal HIS and FLAG tag (human) (UniProt O95150)
# T2 sequence: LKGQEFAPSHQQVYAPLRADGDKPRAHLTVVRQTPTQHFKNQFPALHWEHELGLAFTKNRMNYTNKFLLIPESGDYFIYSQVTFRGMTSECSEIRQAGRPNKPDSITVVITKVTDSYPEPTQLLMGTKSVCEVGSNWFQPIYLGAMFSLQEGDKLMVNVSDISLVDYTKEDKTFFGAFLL
# T3: single-site biotinylated human TL1A (human, UniProt O95150 72-251, single-site biotinylated (site not stated))
# T3 construct: construct used for biotinylation not described
# T3 sequence: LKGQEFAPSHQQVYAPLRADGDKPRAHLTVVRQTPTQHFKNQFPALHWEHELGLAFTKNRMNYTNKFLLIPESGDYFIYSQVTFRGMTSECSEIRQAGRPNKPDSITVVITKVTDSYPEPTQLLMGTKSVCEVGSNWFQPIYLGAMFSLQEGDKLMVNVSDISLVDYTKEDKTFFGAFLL
# Tests used:
# [1] = molecular target: membrane TL1A on human PBMCs (human) (UniProt O95150); assay: flow cytometry on human PBMCs, antibody staining against CD14 [left plot]
# [2] = molecular target: T1, human TL1A extracellular domain with …; assay: SPR run 1; purified antibody on Protein A; TL1A 10 ug/mL; timepoint 59
# Excerpt: (§1) 1.5. Antibody expression and antigen binding as determined by SPR. Using a CM5 sensor chip (GE Healthcare) Protein A (Pierce) was coupled to the chip surface using an amine coupling kit (GE Healthcare). Protein A was coupled on flow cell 1 and 2 (or alternatively 3 and 4) using a BIACORE® T200. […] The amount of supernatant or purified protein (as well as the concentration) injected during the capture stage varied between runs and is specified in the header of the Tables 3-11. At the end of injection of the supernatant or purified antibody the change in response units was measured. This value was reported as Capture Level in Tables 3-11. […] The response units were measured prior to the end of the dissociation phase. […] The sensorgrams were double referenced (flow cell 2 is subtracted from flow cell 1 and a buffer blank). As there were a large number of antibody variants to screen, these were screened across different runs (Tables 3-11). […] A summary of the conditions used in each run is below:
# (§2) 2.1. […] In some experiment the antibodies were purified using Protein A chromatography (See 1.4) and purified antibodies were used in BIACORE® (GE Healthcare) experiments.
# [3] = molecular target: T1, human TL1A extracellular domain with …; assay: SPR run 1; purified antibody on Protein A; TL1A 10 ug/mL; timepoint 590
# Excerpt: as §1, §2
# [4] = molecular target: T2, human TL1A extracellular domain with N-terminal HIS and FLAG tag (human); assay: cell-based or functional assay
# [5] = molecular target: T2, human TL1A extracellular domain with N-terminal HIS and FLAG tag (human); assay: SPR Run 6, purified Ab captured on Protein A, TL1A 5 ug/mL, timepoint 170
# [6] = molecular target: T2, human TL1A extracellular domain with N-terminal HIS and FLAG tag (human); assay: SPR Run 6, purified Ab captured on Protein A, TL1A 5 ug/mL, timepoint 44
# [7] = molecular target: T3, single-site biotinylated human TL1A; assay: competition ELISA: antibody dilutions pre-incubated with biotinylated human TL1A (1 µg/ml), added to plate-coated DR3/Fc; bound TL1A detected with streptavidin-HRP; blocked partner DR3/Fc [top panel]
# Experimental: (§3) 1.8. […] DR3/Fc Chimera (R&D Systems) or DcR3/Fc Chimera (R&D Systems) was coated onto a 96-well plate (Maxisorp, Nunc) at a concentration of 2 μg/ml.
# [8] = molecular target: T3, single-site biotinylated human TL1A; assay: competition ELISA: antibody dilutions pre-incubated with biotinylated human TL1A (1 µg/ml), added to plate-coated DcR3/Fc; bound TL1A detected with streptavidin-HRP; blocked partner DcR3/Fc [bottom panel]
# Experimental: as §3
Molecule,TL1A Binding Level (Early) [2],TL1A Binding Level (Late) [3],"Antibody IC50, TL1A induced caspase potency assay in TF-1 cells [4]","Fold improvement over 320-179, TL1A induced caspase potency assay in TF-1 cells [4]",also measured
Isotype control (antibody),–,–,–,–,"number in the upper left quadrant (antibody-positive, CD14-negative cells) [1]: 0.51; number in the upper right quadrant (antibody-positive, CD14-positive cells) [1]: 0.07"
"320-185 (antibody, human IgG1, name in Kabat numbering, V domains shown, human IgG1, lambda) VH: QVQLVQSGAEVKKPGASVKVSCKASGYTFTSYDINWVRQAPGQGLEWMGWLNPNSGNTGYAQKFQGRVTMTADRSTSTAYMELSSLRSEDTAVYYCAREVPETAAFEYWGQGTLVTVSS VL: QSVLTQPPSVSGAPGQRVTISCTSSSSDIGAGLGVHWYQQLPGTAPKLLIEGYYNRPSGVPDRFSGSKSGTSASLTITGLSPEDEGDYYCQSYDGTLSALFGGGTKLTVLG",137 RU,114 RU,0.02 µg/mL,2 fold,–
"320-457 (antibody, human IgG1, name in Kabat numbering, V domains shown) VH: QVQLVQSGAEVKKPGASVKVSCKASGYTFTSYDDNWVRQAPGQGLEWMGWLNPNSGNTGYAQKFQGRVTMTADRSTSTAYMELSSLRSEDTAVYYCAREVPETAAFEYWGQGTLVTVSS VL: QSVLTQPPSVSGAPGQRVTISCTSSSSDIGAGLGVHWYQQLPGTAPKLLIEGYYNRPSGVPDRFSGSKSGTSASLTITGLLPEDEGDYYCQSYDGTLSALFGGGTKLTVLG",–,–,–,–,TL1A Binding Level (Late) [5]: 4 RU; TL1A Binding Level (Early) [6]: 6 RU
"320-331 (antibody, human IgG1, name in Kabat numbering, V domains shown, human IgG1, lambda) VH: QVQLVQSGAEVKKPGASVKVSCKASGYTFTSYDINWVRQAPGQGLEWMGWLNPNSGNTGYAQKFQGRVTMTADRSTSTAYMELSSLRSEDTAVYYCAREVPETAAFEYWGQGTLVTVSS VL: QSVLTQPPSVSGAPGQRVTISCTSSSSDIGAGLGVHWYQQLPGTAPKLLIEGYYNRPSGVPDRFSGSKSGTSASLTITGLLPEDEGDYYCQSWDGTLSALFGGGTKLTVLG",–,–,–,–,IC50 (read off the curve) [7]: ~0.08 µg/mL
"320-583 (antibody, human IgG1, name in Kabat numbering, V domains shown, human IgG1, lambda) VH: QVQLVQSGAEVKKPGASVKVSCKASGYTFTSYDINWVRQAPGQGLEWMGWLNPNSGNTGYAQKFQGRVTMTADRSTSTAYMELSSLRSEDTAVYYCAREVPETAAFEYWGQGTLVTVSS VL: QSVLTQPPSVSGAPGQRVTISCTSSSSDIGAALGVHWYQQLPGTAPKLLIEGYYNRPSGVPDRFSGSKSGTSASLTITGLLPEDEGDYYCQSWDGTLSALFGGGTKLTVLG",–,–,–,–,IC50 (read off the curve) [8]: ~1 µg/mL
"320-584 (antibody, human IgG1, name in Kabat numbering, V domains shown, human IgG1, lambda) VH: QVQLVQSGAEVKKPGASVKVSCKASGYTFTSYDINWVRQAPGQGLEWMGWLNPNSGNTGYAQKFQGRVTMTADRSTSTAYMELSSLRSEDTAVYYCAREVPETAAFEYWGQGTLVTVSS VL: QSVLTQPPSVSGAPGQRVTISCTSSSSDIGAGSGVHWYQQLPGTAPKLLIEGYYNRPSGVPDRFSGSKSGTSASLTITGLLPEDEGDYYCQSWDGTLSALFGGGTKLTVLG",–,–,–,–,IC50 (read off the curve) [8]: ~2 µg/mL
"320-586 (antibody, human IgG1, name in Kabat numbering, V domains shown, human IgG1, lambda) VH: QVQLVQSGAEVKKPGASVKVSCKASGYTFTSYDINWVRQAPGQGLEWMGWLNPNSGNTGYAQKFQGRVTMTADRSTSTAYMELSSLRSEDTAVYYCAREVPETAAFEYWGQGTLVTVSS VL: QSVLTQPPSVSGAPGQRVTISCTSSSSDIGAGLGVLWYQQLPGTAPKLLIEGYYNRPSGVPDRFSGSKSGTSASLTITGLLPEDEGDYYCQSWDGTLSALFGGGTKLTVLG",–,–,–,–,IC50 (read off the curve) [8]: ~2 µg/mL
"320-191 (antibody, human IgG1, name in Kabat numbering, V domains shown, human IgG1, lambda) VH: QVQLVQSGAEVKKPGASVKVSCKASGYTFTSYDINWVRQAPGQGLEWMGWLNPNSGNTGYAQKFQGRVTMTADRSTSTAYMELSSLRSEDTAVYYCAREVPETAAFEYWGQGTLVTVSS VL: QSVLTQPPSVSGAPGQRVTISCTSSSSDIGAGLGVHWYQQLPGTAPKLLIEGYYNRPSGVPDRFSGSKSGTSASLTITGLYPEDEGDYYCQSYDGTLSALFGGGTKLTVLG",140 RU,117 RU,0.02 µg/mL,2 fold,–
"320-547 (antibody, human IgG1, name in Kabat numbering, V domains shown, human IgG1, lambda) VH: QVQLVQSGAEVKKPGASVKVSCKASGYTFTSYDINWVRQAPGQGLEWMGWLNPNSGYTGYAQKFQGRVTMTADRSTSTAYMELSSLRSEDTAVYYCAREVPETAAFEYWGQGTLVTVSS VL: QSVLTQPPSVSGAPGQRVTISCTSSSSDIGAGLGVHWYQQLPGTAPKLLIEGYYNRPSGVPDRFSGSKSGTSASLTITGLLPEDEGDYYCQSYDGTLSALFGGGTKLTVLG",–,–,–,–,IC50 (read off the curve) [7]: ~0.07 µg/mL
"320-189 (antibody, human IgG1, name in Kabat numbering, V domains shown, human IgG1, lambda) VH: QVQLVQSGAEVKKPGASVKVSCKASGYTFTSYDINWVRQAPGQGLEWMGWLNPNSGNTGYAQKFQGRVTMTADRSTSTAYMELSSLRSEDTAVYYCAREVPETAAFEYWGQGTLVTVSS VL: QSVLTQPPSVSGAPGQRVTISCTSSSSDIGAGLGVHWYQQLPGTAPKLLIEGYYNRPSGVPDRFSGSKSGTSASLTITGLKPEDEGDYYCQSYDGTLSALFGGGTKLTVLG",130 RU,107 RU,0.11 µg/mL,0 fold,–
"320-585 (antibody, human IgG1, name in Kabat numbering, V domains shown, human IgG1, lambda) VH: QVQLVQSGAEVKKPGASVKVSCKASGYTFTSYDINWVRQAPGQGLEWMGWLNPNSGNTGYAQKFQGRVTMTADRSTSTAYMELSSLRSEDTAVYYCAREVPETAAFEYWGQGTLVTVSS VL: QSVLTQPPSVSGAPGQRVTISCTSSSSDIGAGQGVHWYQQLPGTAPKLLIEGYYNRPSGVPDRFSGSKSGTSASLTITGLLPEDEGDYYCQSWDGTLSALFGGGTKLTVLG",–,–,–,–,IC50 (read off the curve) [8]: ~2 µg/mL

# More lines, main results first:
TL1A Binding Level (Early) [2],TL1A Binding Level (Late) [3],"Antibody IC50, TL1A induced caspase potency assay in TF-1 cells [4]","Fold improvement over 320-179, TL1A induced caspase potency assay in TF-1 cells [4]",Molecule,also measured
134 RU,112 RU,0.02 µg/mL,2 fold,"320-187 (antibody, human IgG1, name in Kabat numbering, V domains shown, human IgG1, lambda) VH: QVQLVQSGAEVKKPGASVKVSCKASGYTFTSYDINWVRQAPGQGLEWMGWLNPNSGNTGYAQKFQGRVTMTADRSTSTAYMELSSLRSEDTAVYYCAREVPETAAFEYWGQGTLVTVSS VL: QSVLTQPPSVSGAPGQRVTISCTSSSSDIGAGLGVHWYQQLPGTAPKLLIEGYYNRPSGVPDRFSGSKSGTSASLTITGLDPEDEGDYYCQSYDGTLSALFGGGTKLTVLG",–
136 RU,113 RU,0.02 µg/mL,2 fold,"320-190 (antibody, human IgG1, name in Kabat numbering, V domains shown, human IgG1, lambda) VH: QVQLVQSGAEVKKPGASVKVSCKASGYTFTSYDINWVRQAPGQGLEWMGWLNPNSGNTGYAQKFQGRVTMTADRSTSTAYMELSSLRSEDTAVYYCAREVPETAAFEYWGQGTLVTVSS VL: QSVLTQPPSVSGAPGQRVTISCTSSSSDIGAGLGVHWYQQLPGTAPKLLIEGYYNRPSGVPDRFSGSKSGTSASLTITGLWPEDEGDYYCQSYDGTLSALFGGGTKLTVLG",–
136 RU,113 RU,0.03 µg/mL,1 fold,"320-186 (antibody, human IgG1, name in Kabat numbering, V domains shown, human IgG1, lambda) VH: QVQLVQSGAEVKKPGASVKVSCKASGYTFTSYDINWVRQAPGQGLEWMGWLNPNSGNTGYAQKFQGRVTMTADRSTSTAYMELSSLRSEDTAVYYCAREVPETAAFEYWGQGTLVTVSS VL: QSVLTQPPSVSGAPGQRVTISCTSSSSDIGAGLGVHWYQQLPGTAPKLLIEGYYNRPSGVPDRFSGSKSGTSASLTITGLQPEDEGDYYCQSYDGTLSALFGGGTKLTVLG",–
136 RU,113 RU,0.01 µg/mL,4 fold,"320-188 (antibody, human IgG1, name in Kabat numbering, V domains shown, human IgG1, lambda) VH: QVQLVQSGAEVKKPGASVKVSCKASGYTFTSYDINWVRQAPGQGLEWMGWLNPNSGNTGYAQKFQGRVTMTADRSTSTAYMELSSLRSEDTAVYYCAREVPETAAFEYWGQGTLVTVSS VL: QSVLTQPPSVSGAPGQRVTISCTSSSSDIGAGLGVHWYQQLPGTAPKLLIEGYYNRPSGVPDRFSGSKSGTSASLTITGLHPEDEGDYYCQSYDGTLSALFGGGTKLTVLG",–
